pEC50: −log10 of the molar value.

A word on the stoichiometry N: it is a count of units in the complex or per binding partner. As a reminder, the pEC50 is −log10 of the EC50, conventionally taken in molar units.

One assay addresses the FcγR. Description: fluorescence correlation spectroscopy.
The target of assay [1] is Human Recombinant FcγR receptor IIA/CD32a (human) (UniProt P12318). Description: ELISA.
UniProt P12318, sequence (P12318 34-217): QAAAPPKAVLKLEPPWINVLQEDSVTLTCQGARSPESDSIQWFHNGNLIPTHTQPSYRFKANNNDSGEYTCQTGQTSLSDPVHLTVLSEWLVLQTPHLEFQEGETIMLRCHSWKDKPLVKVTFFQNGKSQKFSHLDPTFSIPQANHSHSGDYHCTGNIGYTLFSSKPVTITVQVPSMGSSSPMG

Consider human IgG1 mAb C11-LALA (antibody), for which, in the assay with the FcγR, the stoichiometry N worked out at 1.
On the same count and under the same terms, to human IgG1 mAb N5-i5-LALA (antibody) belongs 1.
On to immune complex of C11-LALA with FLSC, for which, in assay [1], the negative-log EC50 (pEC50) is 9.22.
Regarding immune complex of N5-i5-LALA with FLSC, the pEC50 in assay [1] is 8.22.
